Source: patent publication US20200254053A1
No end group written: not given here. dPEG24 = 24 PEG moieties

Biological target: C1q as present in the human serum or plasma of the hemolytic assays (human) (UniProt P02745)
Test: cell-based or functional assay

UniProt P02745, sequence (P02745 23-245 limits assumed, chain 1 of 3): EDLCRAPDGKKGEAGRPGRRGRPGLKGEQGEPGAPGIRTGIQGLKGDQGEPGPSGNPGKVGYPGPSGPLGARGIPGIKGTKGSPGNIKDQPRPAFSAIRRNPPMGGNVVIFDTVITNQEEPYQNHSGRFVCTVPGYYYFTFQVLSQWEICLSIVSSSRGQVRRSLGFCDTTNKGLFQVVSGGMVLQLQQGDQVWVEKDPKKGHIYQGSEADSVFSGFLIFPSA
UniProt P02745, sequence (P02746 28-253 limits assumed, chain 2 of 3, further chain): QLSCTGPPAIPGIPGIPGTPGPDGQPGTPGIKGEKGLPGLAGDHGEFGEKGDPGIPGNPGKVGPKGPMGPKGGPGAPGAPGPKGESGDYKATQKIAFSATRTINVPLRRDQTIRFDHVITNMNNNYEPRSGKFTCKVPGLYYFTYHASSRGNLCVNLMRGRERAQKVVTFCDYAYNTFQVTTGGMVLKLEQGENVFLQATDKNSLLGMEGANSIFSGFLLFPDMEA
UniProt P02745, sequence (P02747 29-245 limits assumed, chain 3 of 3, further chain): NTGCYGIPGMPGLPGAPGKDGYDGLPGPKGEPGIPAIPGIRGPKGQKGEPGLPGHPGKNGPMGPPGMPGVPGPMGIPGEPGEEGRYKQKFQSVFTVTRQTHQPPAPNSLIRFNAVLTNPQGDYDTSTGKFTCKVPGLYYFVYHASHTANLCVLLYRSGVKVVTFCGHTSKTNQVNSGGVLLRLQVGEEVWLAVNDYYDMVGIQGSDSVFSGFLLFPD

B1: PA-dPEG24 (peptide)
peptide: IALILEPICCQERAA-dPEG24
modifications: cysteine pairing not given here
Hemolysis in presence of PA-dPEG24 (Abs 412 nm), type-O donor #1 plasma with B+ erythrocytes (0.747 without peptide): 0.008 Abs 412 nm | inhibition of hemolysis, type-O plasma with type-B erythrocytes, dose response (FIG. 8): > 95%
